{"source": "paper PMC7515635", "target": "HIS6-GABARAP (human) (UniProt O95166)", "sequence (O95166 whole entry)": "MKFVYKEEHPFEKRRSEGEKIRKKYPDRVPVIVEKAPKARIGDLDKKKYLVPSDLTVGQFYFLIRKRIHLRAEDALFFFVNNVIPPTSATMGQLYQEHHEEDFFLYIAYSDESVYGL", "assay": "native MS; proteins exchanged into ammonium acetate, nanoelectrospray, Synapt G2Si; C53 1-5 µM or IDR 2.5 µM with 5-20 µM ATG8A or GABARAP", "note": "“And” between values parts separate entries of the source, which are not always exact repeats. Equal entries are not always repeated.", "data": [{"substance": "HIS6-HsC53 (from UniProt Q96JB5 1-506) (natural protein)", "values": [{"measurement": "stoichiometry N (GABARAP per HsC53)", "result": "1 and 2"}]}]}
